Measurements taken from EP1378570B1.

Biological target: murine Flk-1 receptor tyrosine kinase (fetal liver kinase 1), full-length, transiently expressed in COS-1 cells from pCMV-Flk-1 (mouse) (UniProt P35918)
Test: competition of unlabeled VEGF (0 to 7 x 10^-9) with 10 pM 125I-VEGF on COS-1 cells expressing Flk-1; analysis by Munson and Rodbard

Sequence of UniProt P35918 (P35918 other isoform, or with tags, fused parts or gaps limits assumed): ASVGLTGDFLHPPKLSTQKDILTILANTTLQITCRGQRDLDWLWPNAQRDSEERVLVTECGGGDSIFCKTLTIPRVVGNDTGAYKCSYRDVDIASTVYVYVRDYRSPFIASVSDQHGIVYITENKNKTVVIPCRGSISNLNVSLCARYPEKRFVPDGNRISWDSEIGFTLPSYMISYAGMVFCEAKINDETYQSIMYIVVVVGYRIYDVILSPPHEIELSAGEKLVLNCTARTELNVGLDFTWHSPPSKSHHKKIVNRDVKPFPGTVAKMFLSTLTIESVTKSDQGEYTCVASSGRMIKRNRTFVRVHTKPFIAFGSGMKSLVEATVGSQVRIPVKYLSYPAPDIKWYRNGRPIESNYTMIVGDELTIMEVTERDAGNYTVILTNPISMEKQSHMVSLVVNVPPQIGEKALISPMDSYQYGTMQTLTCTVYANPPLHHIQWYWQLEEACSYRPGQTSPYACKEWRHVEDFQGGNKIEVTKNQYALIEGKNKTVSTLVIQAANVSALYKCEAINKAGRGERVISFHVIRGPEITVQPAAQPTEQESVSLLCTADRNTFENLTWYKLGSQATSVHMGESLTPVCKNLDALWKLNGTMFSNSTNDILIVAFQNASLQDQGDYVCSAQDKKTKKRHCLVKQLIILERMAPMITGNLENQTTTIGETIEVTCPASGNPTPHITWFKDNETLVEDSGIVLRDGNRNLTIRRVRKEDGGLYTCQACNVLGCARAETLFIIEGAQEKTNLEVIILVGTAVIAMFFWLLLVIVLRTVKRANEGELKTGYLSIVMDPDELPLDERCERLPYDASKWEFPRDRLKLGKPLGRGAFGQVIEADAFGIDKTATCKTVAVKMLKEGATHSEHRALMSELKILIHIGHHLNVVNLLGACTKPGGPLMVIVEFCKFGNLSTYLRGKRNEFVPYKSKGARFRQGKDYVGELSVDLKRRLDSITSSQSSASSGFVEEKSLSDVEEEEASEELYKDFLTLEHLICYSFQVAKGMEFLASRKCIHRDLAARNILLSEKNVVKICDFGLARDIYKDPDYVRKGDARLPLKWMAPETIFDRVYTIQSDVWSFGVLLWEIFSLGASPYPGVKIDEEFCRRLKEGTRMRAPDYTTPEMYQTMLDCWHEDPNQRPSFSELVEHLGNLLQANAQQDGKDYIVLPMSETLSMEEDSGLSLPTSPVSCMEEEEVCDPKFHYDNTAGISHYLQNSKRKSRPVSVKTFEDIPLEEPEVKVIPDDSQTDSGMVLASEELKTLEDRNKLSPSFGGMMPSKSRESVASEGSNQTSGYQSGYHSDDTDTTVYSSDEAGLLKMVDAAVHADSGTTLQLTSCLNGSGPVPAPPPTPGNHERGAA

Substance: unlabeled VEGF (164 amino acid form), partially purified from conditioned media of COS-1 cells transiently expressing VEGF (from UniProt Q00731 1-392) (ligand)
- Kd: 100 pM
